Data reported in IntAct's records for PubMed 29892012.

B1: Abl interactor 2 (Homo sapiens), Q9NYB9 (parent)
chain: MAELQMLLEEEIPGGRRALFDSYTNLERVADYCENNYIQSADKQRALEETKAYTTQSLASVAYLINTLANNVLQMLDIQASQLRRMESSINHISQTVDIHKEKVARREIGILTTNKNTSRTHKIIAPANLERPVRYIRKPIDYTILDDIGHGVKWLLRFKVSTQNMKMGGLPRTTPPTQKPPSPPMSGKGTLGRHSPYRTLEPVRPPVVPNDYVPSPTRNMAPSQQSPVRTASVNQRNRTYSSSGSSGGSHPSSRSSSRENSGSGSVGVPIAVPTPSPPSVFPAPAGSAGTPPLPATSASAPAPLVPATVPSSTAPNAAAGGAPNLADGFTSPTPPVVSSTPPTGHPVQFYSMNRPASRHTPPTIGGSLPYRRPPSITSQTSLQNQMNGGPFYSQNPVSDTPPPPPPVEEPVFDESPPPPPPPEDYEEEEAAVVEYSDPYAEEDPPWAPRSYLEKVVAIYDYTKDKEDELSFQEGAIIYVIKKNDDGWYEGVMNGVTGLFPGNYVESIMHYSE
partner: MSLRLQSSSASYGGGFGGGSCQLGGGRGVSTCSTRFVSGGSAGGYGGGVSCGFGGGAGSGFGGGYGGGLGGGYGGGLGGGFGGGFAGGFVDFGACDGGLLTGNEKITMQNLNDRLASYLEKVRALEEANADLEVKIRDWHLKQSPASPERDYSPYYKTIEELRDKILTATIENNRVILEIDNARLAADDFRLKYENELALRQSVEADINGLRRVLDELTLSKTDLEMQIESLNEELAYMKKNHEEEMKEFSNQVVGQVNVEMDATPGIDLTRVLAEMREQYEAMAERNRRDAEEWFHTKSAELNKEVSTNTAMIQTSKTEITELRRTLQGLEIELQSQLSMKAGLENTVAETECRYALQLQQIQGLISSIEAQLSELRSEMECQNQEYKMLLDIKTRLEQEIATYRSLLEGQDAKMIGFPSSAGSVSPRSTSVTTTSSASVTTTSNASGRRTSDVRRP
B2: MOB kinase activator 3C (Homo sapiens), Q70IA8 (parent)
chain: MALCLKQVFAKDKTFRPRKRFEPGTQRFELYKKAQASLKSGLDLRSVVRLPPGENIDDWIAVHVVDFFNRINLIYGTMAERCSETSCPVMAGGPRYEYRWQDERQYRRPAKLSAPRYMALLMDWIEGLINDEEVFPTRVGVPFPKNFQQVCTKILTRLFRVFVHVYIHHFDSILSMGAEAHVNTCYKHFYYFIREFSLVDQRELEPLREMTERICH
partner: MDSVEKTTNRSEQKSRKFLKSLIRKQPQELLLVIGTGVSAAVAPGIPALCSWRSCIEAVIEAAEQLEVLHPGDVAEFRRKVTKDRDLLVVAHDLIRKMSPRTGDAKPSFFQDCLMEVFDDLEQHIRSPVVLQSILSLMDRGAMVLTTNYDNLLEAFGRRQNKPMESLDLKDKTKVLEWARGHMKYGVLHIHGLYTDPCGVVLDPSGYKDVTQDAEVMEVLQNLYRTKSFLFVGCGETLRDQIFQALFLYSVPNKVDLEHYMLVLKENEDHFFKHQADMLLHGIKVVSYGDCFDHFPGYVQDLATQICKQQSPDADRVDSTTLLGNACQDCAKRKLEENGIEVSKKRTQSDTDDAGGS
B3: U3 small nucleolar RNA-associated protein 25 homolog (Homo sapiens), Q68CQ4 (parent)
chain: MGKRGSRSQSQLLNTLTKKQKKHLRDFGEEHPFYDRVSRKEAKPQICQLSESSDSSDSESDSESEPQQVSGYHRLLATLKNVSEEEEEDEEEEEEEDSIVDDAEMNDEDGGSDVSVEEEMAAESTESPENVALSADPEGKEDGEEPPGTSQTSPEEFTDAKHESLFSLETNFLEEESGDNSSLKASQDPFLQHVNKELKEKAIQAVATNPKTTHELKWPILGQLFFSSKFQKLETFKPPKDIDLKSLHLQKPLESTWTKTNSQFLSGPQKSSSPFTPLQKELFLIMNSYRDLFYPERTALKNGEEIRHVYCLHVINHILKANAQVLGNNSRRRSQKFGVGDDDDFRDQGLTRPKVLIVVPFREAALRVVQLFISLLEGDSKKKIIVSNKKRFQGEYGSDPEERPPNLKRPEDYEAVFVGNIDDHFRIGVAILQRSIRLYAPFYSSDILIASPLGLRTIIGGEGEKKRDFDFLSSIELLIIDQADIYLMQNWEHVLHLMNHMNLLPLDSHGVDFSRVRMWSLNNWSKYYRQTLLFGALQDAQINSVFNKYCVNMQGQVAVRNVPMTGSISHVLVQLPHVFQRMEAENLASVIDARFNFFVNKILPQYRDAVMSHTLIYIPSYFDFVRLRNYFKKEELNFTHICEYTQKSGVSRARHFFLQGEKQFLLFTERFHFYKRYTIKGIRNLIFYELPTYPHFYSEICNMLRATNRGEEATWTCTVLYSKYDAQRLAAVVGVERAAQMLQSNKNVHLFITGEK
partner: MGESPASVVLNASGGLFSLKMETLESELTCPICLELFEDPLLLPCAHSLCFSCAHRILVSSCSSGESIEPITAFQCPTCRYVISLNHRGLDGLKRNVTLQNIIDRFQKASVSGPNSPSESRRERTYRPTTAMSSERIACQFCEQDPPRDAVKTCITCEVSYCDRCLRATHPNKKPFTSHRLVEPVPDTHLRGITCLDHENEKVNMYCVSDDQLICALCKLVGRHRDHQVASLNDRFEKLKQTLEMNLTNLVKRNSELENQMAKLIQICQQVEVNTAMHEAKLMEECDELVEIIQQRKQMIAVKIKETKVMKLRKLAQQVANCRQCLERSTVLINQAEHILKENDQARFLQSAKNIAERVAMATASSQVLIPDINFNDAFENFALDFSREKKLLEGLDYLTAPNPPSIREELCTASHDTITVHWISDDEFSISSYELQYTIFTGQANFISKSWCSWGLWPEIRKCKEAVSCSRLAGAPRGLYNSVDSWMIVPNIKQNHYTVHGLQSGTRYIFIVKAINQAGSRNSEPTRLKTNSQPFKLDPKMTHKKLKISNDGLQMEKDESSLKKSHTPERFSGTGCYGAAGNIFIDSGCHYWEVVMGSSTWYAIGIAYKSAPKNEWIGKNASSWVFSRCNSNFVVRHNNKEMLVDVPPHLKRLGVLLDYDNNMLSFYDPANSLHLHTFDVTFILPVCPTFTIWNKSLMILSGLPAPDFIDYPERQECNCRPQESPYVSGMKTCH
B4: Abl interactor 2 (Homo sapiens), Q9NYB9 (parent)
chain: B1 chain
partner: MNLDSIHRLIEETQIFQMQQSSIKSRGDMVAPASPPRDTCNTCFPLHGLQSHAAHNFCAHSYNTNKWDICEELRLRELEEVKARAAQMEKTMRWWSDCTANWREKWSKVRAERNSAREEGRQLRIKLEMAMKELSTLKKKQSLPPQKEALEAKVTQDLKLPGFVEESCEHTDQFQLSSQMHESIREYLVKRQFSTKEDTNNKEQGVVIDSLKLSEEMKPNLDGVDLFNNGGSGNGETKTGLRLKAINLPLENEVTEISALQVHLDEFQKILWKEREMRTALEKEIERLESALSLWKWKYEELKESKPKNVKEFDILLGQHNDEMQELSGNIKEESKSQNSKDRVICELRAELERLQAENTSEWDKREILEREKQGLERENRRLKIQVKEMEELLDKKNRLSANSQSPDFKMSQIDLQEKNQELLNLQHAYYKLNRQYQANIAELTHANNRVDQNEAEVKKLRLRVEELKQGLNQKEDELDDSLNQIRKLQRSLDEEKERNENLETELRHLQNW
B5: Zinc finger protein ZXDC (Homo sapiens), Q2QGD7 (parent)
chain: MDLPALLPAPTARGGQHGGGPGPLRRAPAPLGASPARRRLLLVRGPEDGGPGARPGEASGPSPPPAEDDSDGDSFLVLLEVPHGGAAAEAAGSQEAEPGSRVNLASRPEQGPSGPAAPPGPGVAPAGAVTISSQDLLVRLDRGVLALSAPPGPATAGAAAPRRAPQASGPSTPGYRCPEPQCALAFAKKHQLKVHLLTHGGGQGRRPFKCPLEGCGWAFTTSYKLKRHLQSHDKLRPFGCPVGGCGKKFTTVYNLKAHMKGHEQESLFKCEVCAERFPTHAKLSSHQRSHFEPERPYKCDFPGCEKTFITVSALFSHNRAHFREQELFSCSFPGCSKQYDKACRLKIHLRSHTGERPFICDSDSCGWTFTSMSKLLRHRRKHDDDRRFTCPVEGCGKSFTRAEHLKGHSITHLGTKPFECPVEGCCARFSARSSLYIHSKKHVQDVGAPKSRCPVSTCNRLFTSKHSMKAHMVRQHSRRQDLLPQLEAPSSLTPSSELSSPGQSELTNMDLAALFSDTPANASGSAGGSDEALNSGILTIDVTSVSSSLGGNLPANNSSLGPMEPLVLVAHSDIPPSLDSPLVLGTAATVLQQGSFSVDDVQTVSAGALGCLVALPMKNLSDDPLALTSNSNLAAHITTPTSSSTPRENASVPELLAPIKVEPDSPSRPGAVGQQEGSHGLPQSTLPSPAEQHGAQDTELSAGTGNFYLESGGSARTDYRAIQLAKEKKQRGAGSNAGASQSTQRKIKEGKMSPPHFHASQNSWLCGSLVVPSGGRPGPAPAAGVQCGAQGVQVQLVQDDPSGEGVLPSARGPATFLPFLTVDLPVYVLQEVLPSSGGPAGPEATQFPGSTINLQDLQ
B6: E3 ubiquitin-protein ligase LNX (Homo sapiens), Q8TBB1 (parent)
chain: MNQPESANDPEPLCAVCGQAHSLEENHFYSYPEEVDDDLICHICLQALLDPLDTPCGHTYCTLCLTNFLVEKDFCPMDRKPLVLQHCKKSSILVNKLLNKLLVTCPFREHCTQVLQRCDLEHHFQTSCKGASHYGLTKDRKRRSQDGCPDGCASLTATAPSPEVSAAATISLMTDEPGLDNPAYVSSAEDGQPAISPVDSGRSNRTRARPFERSTIRSRSFKKINRALSVLRRTKSGSAVANHADQGRENSENTTAPEVFPRLYHLIPDGEITSIKINRVDPSESLSIRLVGGSETPLVHIIIQHIYRDGVIARDGRLLPGDIILKVNGMDISNVPHNYAVRLLRQPCQVLWLTVMREQKFRSRNNGQAPDAYRPRDDSFHVILNKSSPEEQLGIKLVRKVDEPGVFIFNVLDGGVAYRHGQLEENDRVLAINGHDLRYGSPESAAHLIQASERRVHLVVSRQVRQRSPDIFQEAGWNSNGSWSPGPGERSNTPKPLHPTITCHEKVVNIQKDPGESLGMTVAGGASHREWDLPIYVISVEPGGVISRDGRIKTGDILLNVDGVELTEVSRSEAVALLKRTSSSIVLKALEVKEYEPQEDCSSPAALDSNHNMAPPSDWSPSWVMWLELPRCLYNCKDIVLRRNTAGSLGFCIVGGYEEYNGNKPFFIKSIVEGTPAYNDGRIRCGDILLAVNGRSTSGMIHACLARLLKELKGRITLTIVSWPGTFL
partner: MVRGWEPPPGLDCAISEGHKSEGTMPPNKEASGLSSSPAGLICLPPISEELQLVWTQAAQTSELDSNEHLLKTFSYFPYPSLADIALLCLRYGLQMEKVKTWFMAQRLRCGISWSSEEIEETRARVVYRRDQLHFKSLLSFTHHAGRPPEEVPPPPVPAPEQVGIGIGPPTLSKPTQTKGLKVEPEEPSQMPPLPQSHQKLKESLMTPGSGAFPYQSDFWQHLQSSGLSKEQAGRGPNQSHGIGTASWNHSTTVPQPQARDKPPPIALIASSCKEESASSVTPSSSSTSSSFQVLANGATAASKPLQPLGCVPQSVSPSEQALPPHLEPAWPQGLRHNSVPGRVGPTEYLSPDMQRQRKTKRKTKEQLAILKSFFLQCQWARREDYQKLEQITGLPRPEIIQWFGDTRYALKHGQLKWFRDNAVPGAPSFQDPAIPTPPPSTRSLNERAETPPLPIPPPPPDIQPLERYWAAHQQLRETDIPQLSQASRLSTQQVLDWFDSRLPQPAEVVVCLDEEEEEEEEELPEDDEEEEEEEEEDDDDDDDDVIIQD

Variants of: B1
Conditions: with KRT13, P13646

Variant | effect of a mutation on the interaction
E202K | with no effect

Variants of: B2
Conditions: with FAM118A

Variant | effect of a mutation on the interaction
I173F | disrupting interaction strength

Variants of: B3
Conditions: with trim1_human MID2, Q9UJV3

Variant | effect of a mutation on the interaction
D399E | with no effect

Variants of: B4
Conditions: with CCDC102B

Variant | effect of a mutation on the interaction
E202K | with no effect

Variants of: B4
Conditions: with CCDC102B
Remark: another data set of the same source

Variant | effect of a mutation on the interaction
R373C | with no effect

Variants of: B5
Conditions: with wdr5_human WDR5, P61964

Variant | effect of a mutation on the interaction
T589M | with no effect

Variants of: B6
Conditions: with homez_human HOMEZ

Variant | effect of a mutation on the interaction
E295K | disrupting interaction strength
